Measurements as given in patent US8815529B2, “Sulfotransferase assay” (Research & Diagnostics Systems, Inc., priority 2011, dated 2014).

Legend:
Format in all cases: biochemical
[1] = SULT1A1 enzyme dose curve, phosphatase-coupled sulfotransferase assay; details: for rate of phosphate release: 0.25 mM PAPS, 0.25 mM pNP
Experimental: (§1) In the following examples, the gPAPP used was recombinant mouse gPAPP expressed in CHO cells as an N-terminal His-tagged recombinant protein containing amino acids from E51 to K356, created by R & D Systems. The sequence was based on accession number NP 808398 from the National Center for Biotechnology Information. The chondroitin sulfate (CS) and p-nitrophenol (pNP) were obtained from Sigma Aldrich. The PAPS was prepared by R & D Systems using recombinant S. cerevisiae ATP sulurylase and P. chrysogenum APS kinase. The APS kinase was also prepared by R & D Systems. Recombinant human SULT1A1, CHST3, CD73, TNAP and Malachite Green Phosphate Detection Kit were from R & D Systems. Protein concentrations were quantified using the Bradford assay as described by Bradford, M. M., A rapid and sensitive method for the quantitation of microgram quantities of protein utilizing the principle of protein-dye binding. Anal Biochem. 1976. Vol 72, Page 248-254, the relevant portions of which are hereby incorporated by reference. Phosphate levels were determined using the Malachite Green Phosphate Detection Kit available from R & D Systems, according to the package instructions. All examples were performed in a buffer of 25 mM Tris at pH 7.5.
A series of reactions was performed by combining various amounts of SULT1A1 with 0.25 mM PAPS and 0.25 mM pNP and with either 1 μg gPAPP alone, or both 1 μg gPAPP and 0.1 μg CD73 in 50 μL of Tris buffer containing 10 mM of MgCl2 at pH 7.5. […] Since gPAPP and CD73 together release two equivalents of phosphate from each PAP, the specific activity of SULT1A1 was averaged to 40.0±1.9 pmol/min/μg. This specific activity is consistent with the known results obtained using radioisotope assays.

[2] = gPAPP activity: Mg2+ and pH dependence; details: 0.025 μg gPAPP, 25 nmol PAP
Experimental: as §1, with “Vol 72, Page 248-254, the relevant portions of which are hereby incorporated by reference.” left out, “All examples were performed in a buffer of 25 mM Tris at pH 7.5.” left out
First, the activity of gPAPP in the presence of Mg^2+ was tested by combining 0.025 μg gPAPP, 25 nmol PAP and increasing amounts of Mg^2+ in 50 μL of assay buffer of 25 mM Tris at pH 7.5. […] In a second experiment, the activity of gPAPP was evaluated at various pH levels. […]

[3] = Coupling capacity of gPAPP; details: 10 mM Mg2+, pH 7.5
Experimental: as §1, with “Vol 72, Page 248-254, the relevant portions of which are hereby incorporated by reference.” left out, “All examples were performed in a buffer of 25 mM Tris at pH 7.5.” left out
In this example, the coupling capacity of gPAPP was determined. […] The coupling capacity of gPAPP was determined by combining 1 μg gPAPP with increasing amounts of PAP, in the presence or absence of 0.5 mM PAPS in 50 μL assay buffer containing 10 mM Mg^2+ at pH 7.5 for either 20 or 40 minutes. […]

[4] = CHST3 enzyme dose curve, gPAPP-coupled assay; details: 10 mg/ml CS, 0.5 mM PAPS, 1 μg gPAPP
Experimental: as §1, with “Vol 72, Page 248-254, the relevant portions of which are hereby incorporated by reference.” left out, “All examples were performed in a buffer of 25 mM Tris at pH 7.5.” left out
First, the optimal concentration for CS was visually determined to be >5 mg/ml and the optimal concentration for PAPS was visually determined to be about 0.5 mM using FIGS. 10A and 10B by finding the substrate concentration corresponding to the highest point in the curves. […]

B1: SULT1A1: recombinant human sulfotransferase SULT1A1 from R & D Systems (protein, UniProt P50225 1-295, looked up)
Sulfotransferase 1A1: MELIQDTSRPPLEYVKGVPLIKYFAEALGPLQSFQARPDDLLISTYPKSGTTWVSQILDMIYQGGDLEKCHRAPIFMRVPFLEFKAPGIPSGMETLKDTPAPRLLKTHLPLALLPQTLLDQKVKVVYVARNAKDVAVSYYHFYHMAKVHPEPGTWDSFLEKFMVGEVSYGSWYQHVQEWWELSRTHPVLYLFYEDMKENPKREIQKILEFVGRSLPEETVDFVVQHTSFKEMKKNPMTNYTTVPQEFMDHSISPFMRKGMAGDWKTTFTVAQNERFDADYAEKMAGCSLSFRSEL
- specific activity ([1]; averaged over gPAPP alone and gPAPP plus CD73): 40.0 ± 1.9 pmol/min/µg
- rate of phosphate release ([1]; coupled to both gPAPP and CD73): 83.7 pmol/min/µg
- rate of phosphate release ([1]; coupled to gPAPP alone): 38.1 pmol/min/µg

B2: gPAPP: recombinant mouse gPAPP expressed in CHO cells, N-terminal His-tagged, amino acids E51 to K356 (protein, UniProt Q80V26 51-356, looked up, fragment)
chain: EVASDGGTVDLREMLAVAVLAAERGGDEVRRVRESNVLHEKSKGKTREGADDKMTSGDVLSNRKMFYLLKTAFPNVQINTEEHVDASDKEVIVWNRKIPEDILKEIAAPKEVPAESVTVWIDPLDATQEYTEDLRKYVTTMVCVAVNGKPVLGVIHKPFSEYTAWAMVDGGSNVKARSSYNEKTPKIIVSRSHAGMVKQVALQTFGNQTSIIPAGGAGYKVLALLDVPDMTQEKADLYIHVTYIKKWDICAGNAILKALGGHMTTLNGEEISYTGSDGIEGGLLASIRMNHQALVRKLPDLEKSGH
modifications: N-terminal His tag
notes: recombinant mouse gPAPP expressed in CHO cells, N-terminal His-tagged, amino acids E51 to K356
- Mg2+ concentration at which maximum activity was achieved ([2]; 25 mM Tris pH 7.5): greater than 10 mM
- pH of optimal activity ([2]; 10 mM Mg2+): ~7.5
- coupling capacity (PAP completely hydrolysed by 1 μg gPAPP) ([3]; 20 minute reaction): 8 nmol
- coupling capacity (PAP completely hydrolysed by 1 μg gPAPP) ([3]; 40 minute reaction): 15 nmol

B3: CHST3: recombinant human carbohydrate sulfotransferase 3 from R & D Systems (protein, UniProt Q7LGC8 1-479, looked up)
Carbohydrate sulfotransferase …: MEKGLTLPQDCRDFVHSLKMRSKYALFLVFVVIVFVFIEKENKIISRVSDKLKQIPQALADANSTDPALILAENASLLSLSELDSAFSQLQSRLRNLSLQLGVEPAMEAAGEEEEEQRKEEEPPRPAVAGPRRHVLLMATTRTGSSFVGEFFNQQGNIFYLFEPLWHIERTVSFEPGGANAAGSALVYRDVLKQLFLCDLYVLEHFITPLPEDHLTQFMFRRGSSRSLCEDPVCTPFVKKVFEKYHCKNRRCGPLNVTLAAEACRRKEHMALKAVRIRQLEFLQPLAEDPRLDLRVIQLVRDPRAVLASRMVAFAGKYKTWKKWLDDEGQDGLREEEVQRLRGNCESIRLSAELGLRQPAWLRGRYMLVRYEDVARGPLQKAREMYRFAGIPLTPQVEDWIQKNTQAAHDGSGIYSTQKNSSEQFEKWRFSMPFKLAQVVQAACGPAMRLFGYKLARDAAALTNRSVSLLEERGTFWVT
- specific activity [4]: 1110 pmol/min/µg
